In patent US20140038892A1:

biological target: FGFR3-IIIc (UniProt P22607); experiment: cell-based or functional assay
Sequence (P22607 23-806): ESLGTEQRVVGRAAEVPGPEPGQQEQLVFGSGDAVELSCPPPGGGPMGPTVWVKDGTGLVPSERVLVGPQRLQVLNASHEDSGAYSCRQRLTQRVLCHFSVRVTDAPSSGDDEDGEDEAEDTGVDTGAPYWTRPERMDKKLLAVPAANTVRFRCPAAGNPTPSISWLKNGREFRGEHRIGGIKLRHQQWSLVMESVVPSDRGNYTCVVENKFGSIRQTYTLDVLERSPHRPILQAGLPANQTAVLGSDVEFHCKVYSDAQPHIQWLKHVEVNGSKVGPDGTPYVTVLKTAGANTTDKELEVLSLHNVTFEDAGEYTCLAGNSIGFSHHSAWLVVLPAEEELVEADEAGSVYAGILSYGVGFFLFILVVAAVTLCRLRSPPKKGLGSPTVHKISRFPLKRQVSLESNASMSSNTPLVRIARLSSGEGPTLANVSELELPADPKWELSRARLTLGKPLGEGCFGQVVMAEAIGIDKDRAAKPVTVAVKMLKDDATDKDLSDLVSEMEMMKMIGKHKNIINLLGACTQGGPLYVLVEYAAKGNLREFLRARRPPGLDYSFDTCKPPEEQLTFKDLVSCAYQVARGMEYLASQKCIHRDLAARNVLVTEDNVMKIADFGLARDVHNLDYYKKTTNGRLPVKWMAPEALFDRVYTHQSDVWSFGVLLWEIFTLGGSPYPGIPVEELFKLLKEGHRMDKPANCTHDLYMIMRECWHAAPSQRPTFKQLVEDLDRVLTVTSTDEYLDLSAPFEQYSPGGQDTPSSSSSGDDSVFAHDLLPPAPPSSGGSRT

Chain of FGF18 Δ33 - HA (234 Kd) conjugate (O76093 34-207, tags or fused parts left off): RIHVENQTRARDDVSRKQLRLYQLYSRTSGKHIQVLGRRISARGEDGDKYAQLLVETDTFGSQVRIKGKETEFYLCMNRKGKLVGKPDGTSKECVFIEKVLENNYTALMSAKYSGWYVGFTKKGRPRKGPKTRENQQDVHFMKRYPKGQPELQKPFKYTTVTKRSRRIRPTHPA
Chain of FGF18 - HA (234 Kd) conjugate (O76093 28-207 limits assumed): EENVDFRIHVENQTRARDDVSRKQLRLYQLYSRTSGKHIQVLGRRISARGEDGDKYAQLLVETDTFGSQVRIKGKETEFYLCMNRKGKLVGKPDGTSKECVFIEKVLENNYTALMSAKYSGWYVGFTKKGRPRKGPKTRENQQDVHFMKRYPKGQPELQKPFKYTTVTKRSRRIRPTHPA
Chain of FGF18 w.t. (O76093 28-207 limits assumed): as above
Chain of FGF18 Δ51 - HA (234 Kd) conjugate (O76093 52-207, tags or fused parts left off): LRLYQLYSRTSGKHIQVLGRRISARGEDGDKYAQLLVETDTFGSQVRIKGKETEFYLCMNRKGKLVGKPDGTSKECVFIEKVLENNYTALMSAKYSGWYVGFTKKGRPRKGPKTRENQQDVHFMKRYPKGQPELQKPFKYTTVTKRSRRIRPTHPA
Chain of FGF-18 delta51 (O76093 other isoform, or with tags, fused parts or gaps mutant limits assumed): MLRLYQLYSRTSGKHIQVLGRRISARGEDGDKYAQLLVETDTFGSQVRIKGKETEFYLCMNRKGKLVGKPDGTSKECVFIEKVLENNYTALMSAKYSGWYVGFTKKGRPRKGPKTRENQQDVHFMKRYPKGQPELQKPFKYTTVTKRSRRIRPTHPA
Chain of FGF-18 delta33 (O76093 other isoform, or with tags, fused parts or gaps mutant limits assumed): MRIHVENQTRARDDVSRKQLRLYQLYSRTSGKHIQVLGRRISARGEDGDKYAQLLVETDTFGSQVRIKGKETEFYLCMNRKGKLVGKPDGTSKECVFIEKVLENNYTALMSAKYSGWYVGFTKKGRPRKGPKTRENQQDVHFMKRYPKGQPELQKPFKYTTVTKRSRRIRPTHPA

Row | Mitogenic activity FDCP-R3 (EC50) [ng/mL] | Mitogenic activity, FGFR-transfected FDCP cell lines assay (EC50) [ng/mL] | Mitogenic activity in FDCP cell lines assay, Conjugates EC50, +Hyaluronidase [ng/mL] | Mitogenic activity in FDCP cell lines assay, Conjugates EC50, -Hyaluronidase [ng/mL] | Mitogenic activity in FDCP cell lines assay (EC50) [ng/mL] | Substance
1 | < 3 |  |  |  |  | FGF2 - CMC (250 Kd) conjugate (from UniProt P09038 134-288) (ligand)
2 |  | 3.5 |  |  |  | FGF-18 delta33 (from UniProt O76093 34-207) (ligand)
3 | < 12.5 |  |  |  |  | FGF18 Δ51 - HA (234 Kd) conjugate (from UniProt O76093 52-207) (ligand)
4 | < 3 |  |  |  |  | FGF2 - CMC (90 Kd) conjugate (from UniProt P09038 134-288) (ligand)
5 |  |  | < 5 | > 20 |  | FGF2 conjugate with HA-hyd (10% hydrazido groups) - BMPS (from UniProt P09038 134-288) (ligand)
6 | < 10 |  |  |  |  | FGF18 - HA (234 Kd) conjugate (from UniProt O76093 28-207) (ligand)
7 |  |  | < 5 | < 5 |  | FGF2 conjugate with HA-hyd (40% hydrazido groups) - SMPH (from UniProt P09038 134-288) (ligand)
8 | < 5 |  |  |  |  | FGF2 - HA (234 Kd) conjugate (from UniProt P09038 134-288) (ligand)
9 |  | 1 |  |  | 1 | FGF2 (from UniProt P09038 134-288) (ligand)
10 | < 5 |  |  |  |  | FGF2 - HA (74 Kd) conjugate (from UniProt P09038 134-288) (ligand)
11 |  |  | < 5 | > 10 |  | FGF2 conjugate with HA-hyd (10% hydrazido groups) - SMPH (from UniProt P09038 134-288) (ligand)

More lines, now with the values behind:

Row | Substance | Mitogenic activity FDCP-R3 (EC50) [ng/mL] | Mitogenic activity, FGFR-transfected FDCP cell lines assay (EC50) [ng/mL] | Mitogenic activity in FDCP cell lines assay, Conjugates EC50, +Hyaluronidase [ng/mL] | Mitogenic activity in FDCP cell lines assay, Conjugates EC50, -Hyaluronidase [ng/mL] | Mitogenic activity in FDCP cell lines assay (EC50) [ng/mL]
12 | FGF18 Δ33 - HA (234 Kd) conjugate (from UniProt O76093 34-207) (ligand) | < 6.8 |  |  |  | 
13 | FGF2 - HA (17 Kd) conjugate (from UniProt P09038 134-288) (ligand) | < 3 |  |  |  | 
14 | FGF18 w.t. (from UniProt O76093 28-207) (ligand) |  | 5 |  |  | 
15 | FGF-18 delta51 (from UniProt O76093 52-207) (ligand) |  | 5.5 |  |  | 
16 | FGF2 conjugate with HA-hyd (10% hydrazido groups) - GMBS (from UniProt P09038 134-288) (ligand) |  |  | < 5 | > 20 | 
17 | FGF2 - HA (132 Kd) conjugate (from UniProt P09038 134-288) (ligand) | < 5 |  |  |  | 
18 | FGF2 conjugate with HA-hyd (10% hydrazido groups) - EMCS (from UniProt P09038 134-288) (ligand) |  |  | < 5 | > 40 | 
19 | FGF2 conjugate with HA-hyd (40% hydrazido groups) - BMPS (from UniProt P09038 134-288) (ligand) |  |  | > 15 | > 15 | 
